Measurements from paper PMC8298264, “Function of cofactor Akirin2 in the regulation of gene expression in model human neutrophil-like HL60 cells” (Bioscience Reports, 2021).

B1: UDP-N-acetylglucosamine--peptide N-acetylglucosaminyltransferase 110 kDa subunit (protein, UniProt O15294 2-1046, looked up)
UDP-N-acetylglucosamine--pepti …: ASSVGNVADSTEPTKRMLSFQGLAELAHREYQAGDFEAAERHCMQLWRQEPDNTGVLLLLSSIHFQCRRLDRSAHFSTLAIKQNPLLAEAYSNLGNVYKERGQLQEAIEHYRHALRLKPDFIDGYINLAAALVAAGDMEGAVQAYVSALQYNPDLYCVRSDLGNLLKALGRLEEAKACYLKAIETQPNFAVAWSNLGCVFNAQGEIWLAIHHFEKAVTLDPNFLDAYINLGNVLKEARIFDRAVAAYLRALSLSPNHAVVHGNLACVYYEQGLIDLAIDTYRRAIELQPHFPDAYCNLANALKEKGSVAEAEDCYNTALRLCPTHADSLNNLANIKREQGNIEEAVRLYRKALEVFPEFAAAHSNLASVLQQQGKLQEALMHYKEAIRISPTFADAYSNMGNTLKEMQDVQGALQCYTRAIQINPAFADAHSNLASIHKDSGNIPEAIASYRTALKLKPDFPDAYCNLAHCLQIVCDWTDYDERMKKLVSIVADQLEKNRLPSVHPHHSMLYPLSHGFRKAIAERHGNLCLDKINVLHKPPYEHPKDLKLSDGRLRVGYVSSDFGNHPTSHLMQSIPGMHNPDKFEVFCYALSPDDGTNFRVKVMAEANHFIDLSQIPCNGKAADRIHQDGIHILVNMNGYTKGARNELFALRPAPIQAMWLGYPGTSGALFMDYIITDQETSPAEVAEQYSEKLAYMPHTFFIGDHANMFPHLKKKAVIDFKSNGHIYDNRIVLNGIDLKAFLDSLPDVKIVKMKCPDGGDNADSSNTALNMPVIPMNTIAEAVIEMINRGQIQITINGFSISNGLATTQINNKAATGEEVPRTIIVTTRSQYGLPEDAIVYCNFNQLYKIDPSTLQMWANILKRVPNSVLWLLRFPAVGEPNIQQYAQNMGLPQNRIIFSPVAPKEEHVRRGQLADVCLDTPLCNGHTTGMDVLWAGTPMVTMPGETLASRVAASQLTCLGCLELIAKNRQEYEDIAVKLGTDLEYLKKVRGKVWKQRISSPLFNTKQYTMELERLYLQMWEHYAAGNKPDHMIKPVEVTESA
B2: OCIA domain-containing protein 1 (protein, UniProt Q9NX40 1-245, looked up)
OCIA domain-containing …: MNGRADFREPNAEVPRPIPHIGPDYIPTEEERRVFAECNDESFWFRSVPLAATSMLITQGLISKGILSSHPKYGSIPKLILACIMGYFAGKLSYVKTCQEKFKKLENSPLGEALRSGQARRSSPPGHYYQKSKYDSSVSGQSSFVTSPAADNIEMLPHYEPIPFSSSMNESAPTGITDHIVQGPDPNLEESPKRKNITYEELRNKNRESYEVSLTQKTDPSVRPMHERVPKKEVKVNKYGDTWDE
B3: PML-RARA-regulated adapter molecule 1 (protein, UniProt Q96QH2 1-670, looked up)
PML-RARA-regulated adapter …: MAHHLPAAMESHQDFRSIKAKFQASQPEPSDLPKKPPKPEFGKLKKFSQPELSEHPKKAPLPEFGAVSLKPPPPEVTDLPKKPPPPEVTDLPKKPPPPEVTDLPKKPPPPEVTDLPKKPSKLELSDLSKKFPQLGATPFPRKPLQPEVGEAPLKASLPEPGAPARKPLQPDELSHPARPPSEPKSGAFPRKLWQPEAGEATPRSPQPELSTFPKKPAQPEFNVYPKKPPQPQVGGLPKKSVPQPEFSEAAQTPLWKPQSSEPKRDSSAFPKKASQPPLSDFPKKPPQPELGDLTRTSSEPEVSVLPKRPRPAEFKALSKKPPQPELGGLPRTSSEPEFNSLPRKLLQPERRGPPRKFSQPEPSAVLKRHPQPEFFGDLPRKPPLPSSASESSLPAAVAGFSSRHPLSPGFGAAGTPRWRSGGLVHSGGARPGLRPSHPPRRRPLPPASSLGHPPAKPPLPPGPVDMQSFRRPSAASIDLRRTRSAAGLHFQDRQPEDIPQVPDEIYELYDDVEPRDDSSPSPKGRDEAPSVQQAARRPPQDPALRKEKDPQPQQLPPMDPKLLKQLRKAEKAEREFRKKFKFEGEIVVHTKMMIDPNAKTRRGGGKHLGIRRGEILEVIEFTSNEEMLCRDPKGKYGYVPRTALLPLETEVYDDVDFCDPLENQPLPLGR
B4: Copper transport protein ATOX1 (protein, UniProt O00244 1-68, looked up)
Copper transport protein ATOX1: MPKHEFSVDMTCGGCAEAVSRVLNKLGGVKYDIDLPNKKVCIESEHSMDTLLATLKKTGKTVSYLGLE
B5: Lysozyme C (protein, UniProt P61626 19-148, looked up)
Lysozyme C: KVFERCELARTLKRLGMDGYRGISLANWMCLAKWESGYNTRATNYNAGDRSTDYGIFQINSRYWCNDGKTPGAVNACHLSCSALLQDNIADAVACAKRVVRDPQGIRAWVAWRNRCQNRDVRQYVQGCGV
B6: Perilipin-3 (protein, UniProt O60664 2-434, looked up)
Perilipin-3: SADGAEADGSTQVTVEEPVQQPSVVDRVASMPLISSTCDMVSAAYASTKESYPHIKTVCDAAEKGVRTLTAAAVSGAQPILSKLEPQIASASEYAHRGLDKLEENLPILQQPTEKVLADTKELVSSKVSGAQEMVSSAKDTVATQLSEAVDATRGAVQSGVDKTKSVVTGGVQSVMGSRLGQMVLSGVDTVLGKSEEWADNHLPLTDAELARIATSLDGFDVASVQQQRQEQSYFVRLGSLSERLRQHAYEHSLGKLRATKQRAQEALLQLSQVLSLMETVKQGVDQKLVEGQEKLHQMWLSWNQKQLQGPEKEPPKPEQVESRALTMFRDIAQQLQATCTSLGSSIQGLPTNVKDQVQQARRQVEDLQATFSSIHSFQDLSSSILAQSRERVASAREALDHMVEYVAQNTPVTWLVGPFAPGITEKAPEEKK
B7: Bone marrow proteoglycan (protein, UniProt P13727 17-222, looked up)
Bone marrow proteoglycan: LHLRSETSTFETPLGAKTLPEDEETPEQEMEETPCRELEEEEEWGSGSEDASKKDGAVESISVPDMVDKNLTCPEEEDTVKVVGIPGCQTCRYLLVRSLQTFSQAWFTCRRCYRGNLVSIHNFNINYRIQCSVSALNQGQVWIGGRITGSGRCRRFQWVDGSRWNFAYWAAHQPWSRGGHCVALCTRGGHWRRAHCLRRLPFICSY
B8: Resistin (protein, UniProt Q9HD89 19-108, looked up)
Resistin: KTLCSMEEAINERIQEVAGSLIFRAISSIGLECQSVTSRGDLATCPRGFAVTGCTCGSACGSWDVRAETTCHCQCAGMDWTGARCCRVQP
B9: Galectin-9 (protein, UniProt O00182 1-355, looked up)
Galectin-9: MAFSGSQAPYLSPAVPFSGTIQGGLQDGLQITVNGTVLSSSGTRFAVNFQTGFSGNDIAFHFNPRFEDGGYVVCNTRQNGSWGPEERKTHMPFQKGMPFDLCFLVQSSDFKVMVNGILFVQYFHRVPFHRVDTISVNGSVQLSYISFQNPRTVPVQPAFSTVPFSQPVCFPPRPRGRRQKPPGVWPANPAPITQTVIHTVQSAPGQMFSTPAIPPMMYPHPAYPMPFITTILGGLYPSKSILLSGTVLPSAQRFHINLCSGNHIAFHLNPRFDENAVVRNTQIDNSWGSEERSLPRKMPFVRGQSFSVWILCEAHCLKVAVDGQHLFEYYHRLRNLPTINRLEVGGDIQLTHVQT
B10: Alpha-2-HS-glycoprotein (protein, UniProt P02765 19-300; P02765 341-367, looked up)
Alpha-2-HS-glycoprotein chain … 1: APHGPGLIYRQPNCDDPETEEAALVAIDYINQNLPWGYKHTLNQIDEVKVWPQQPSGELFEIEIDTLETTCHVLDPTPVARCSVRQLKEHAVEGDCDFQLLKLDGKFSVVYAKCDSSPDSAEDVRKVCQDCPLLAPLNDTRVVHAAKAALAAFNAQNNGSNFQLEEISRAQLVPLPPSTYVEFTVSGTDCVAKEATEAAKCNLLAEKQYGFCKATLSEKLGGAEVAVTCMVFQTQPVSSQPQPEGANEAVPTPVVDPDAPPSPPLGAPGLPPAGSPPDSHVL
Alpha-2-HS-glycoprotein chain … 2: TVVQPSVGAAAGPVVPPCPGRIRHFKV
B11: Intraflagellar transport protein 25 homolog (protein, UniProt Q9Y547 1-144, looked up)
Intraflagellar transport …: MRKIDLCLSSEGSEVILATSSDEKHPPENIIDGNPETFWTTTGMFPQEFIICFHKHVRIERLVIQSYFVQTLKIEKSTSKEPVDFEQWIEKDLVHTEGQLQNEEIVAHDGSATYLRFIIVSAFDHFASVHSVSAEGTVVSNLSS
B12: Serpin B8 (protein, UniProt P50452 1-374, looked up)
Serpin B8: MDDLCEANGTFAISLFKILGEEDNSRNVFFSPMSISSALAMVFMGAKGSTAAQMSQALCLYKDGDIHRGFQSLLSEVNRTGTQYLLRTANRLFGEKTCDFLPDFKEYCQKFYQAELEELSFAEDTEECRKHINDWVAEKTEGKISEVLDAGTVDPLTKLVLVNAIYFKGKWNEQFDRKYTRGMLFKTNEEKKTVQMMFKEAKFKMGYADEVHTQVLELPYVEEELSMVILLPDDNTDLAVVEKALTYEKFKAWTNSEKLTKSKVQVFLPRLKLEESYDLEPFLRRLGMIDAFDEAKADFSGMSTEKNVPLSKVAHKCFVEVNEEGTEAAAATAVVRNSRCSRMEPRFCADHPFLFFIRHHKTNCILFCGRFSSP
B13: Heat shock protein 105 kDa (protein, UniProt Q92598 2-858, looked up)
Heat shock protein 105 kDa: SVVGLDVGSQSCYIAVARAGGIETIANEFSDRCTPSVISFGSKNRTIGVAAKNQQITHANNTVSNFKRFHGRAFNDPFIQKEKENLSYDLVPLKNGGVGIKVMYMGEEHLFSVEQITAMLLTKLKETAENSLKKPVTDCVISVPSFFTDAERRSVLDAAQIVGLNCLRLMNDMTAVALNYGIYKQDLPSLDEKPRIVVFVDMGHSAFQVSACAFNKGKLKVLGTAFDPFLGGKNFDEKLVEHFCAEFKTKYKLDAKSKIRALLRLYQECEKLKKLMSSNSTDLPLNIECFMNDKDVSGKMNRSQFEELCAELLQKIEVPLYSLLEQTHLKVEDVSAVEIVGGATRIPAVKERIAKFFGKDISTTLNADEAVARGCALQCAILSPAFKVREFSVTDAVPFPISLIWNHDSEDTEGVHEVFSRNHAAPFSKVLTFLRRGPFELEAFYSDPQGVPYPEAKIGRFVVQNVSAQKDGEKSRVKVKVRVNTHGIFTISTASMVEKVPTEENEMSSEADMECLNQRPPENPDTDKNVQQDNSEAGTQPQVQTDAQQTSQSPPSPELTSEENKIPDADKANEKKVDQPPEAKKPKIKVVNVELPIEANLVWQLGKDLLNMYIETEGKMIMQDKLEKERNDAKNAVEEYVYEFRDKLCGPYEKFICEQDHQNFLRLLTETEDWLYEEGEDQAKQAYVDKLEELMKIGTPVKVRFQEAEERPKMFEELGQRLQHYAKIAADFRNKDEKYNHIDESEMKKVEKSVNEVMEWMNNVMNAQAKKSLDQDPVVRAQEIKTKIKELNNTCEPVVTQPKPKIESPKLERTPNGPNIDKKEEDLEDKNNFGAEPPHQNGECYPNEKNSVNMDLD

Test system: human HL60 cells
Experiment: SWATH-MS proteomics, differential protein representation, akirin2 KO vs WT HL60 cells
Format: cell-based
Conditions: SWATH-MS, akirin2 KO vs WT HL60 cells; over-represented in KO
How it was run: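 Proteins from WT and akirin2 KO HL60 cells (n=3 biological replicates) were FASP trypsin-digested and analyzed by SWATH-MS DIA with variable windows against an IDA-derived spectral library. Identifications at 1% global FDR; quantities normalized to total area sums of all detected proteins.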

| Molecule | Fold Change | Log (Fold Change) |
| --- | --- | --- |
| B1 | 2.047 | 0.3112 |
| B2 | 1.964 | 0.2932 |
| B3 | 2.265 | 0.355 |
| B4 | 1.845 | 0.266 |
| B5 | 2.204 | 0.3432 |
| B6 | 1.9528 | 0.2907 |
| B7 | 6.406 | 0.8066 |
| B8 | 1.774 | 0.2489 |
| B9 | 1.857 | 0.2687 |
| B10 | 2.248 | 0.3517 |
| B11 | 2.042 | 0.31 |
| B12 | 2.0658 | 0.3151 |
| B13 | 1.783 | 0.2511 |
